Experiment [1] addresses T1, human IL12Rβ2, cell-expressed (human, UniProt Q99665 24-862).
T1 sequence (looked up): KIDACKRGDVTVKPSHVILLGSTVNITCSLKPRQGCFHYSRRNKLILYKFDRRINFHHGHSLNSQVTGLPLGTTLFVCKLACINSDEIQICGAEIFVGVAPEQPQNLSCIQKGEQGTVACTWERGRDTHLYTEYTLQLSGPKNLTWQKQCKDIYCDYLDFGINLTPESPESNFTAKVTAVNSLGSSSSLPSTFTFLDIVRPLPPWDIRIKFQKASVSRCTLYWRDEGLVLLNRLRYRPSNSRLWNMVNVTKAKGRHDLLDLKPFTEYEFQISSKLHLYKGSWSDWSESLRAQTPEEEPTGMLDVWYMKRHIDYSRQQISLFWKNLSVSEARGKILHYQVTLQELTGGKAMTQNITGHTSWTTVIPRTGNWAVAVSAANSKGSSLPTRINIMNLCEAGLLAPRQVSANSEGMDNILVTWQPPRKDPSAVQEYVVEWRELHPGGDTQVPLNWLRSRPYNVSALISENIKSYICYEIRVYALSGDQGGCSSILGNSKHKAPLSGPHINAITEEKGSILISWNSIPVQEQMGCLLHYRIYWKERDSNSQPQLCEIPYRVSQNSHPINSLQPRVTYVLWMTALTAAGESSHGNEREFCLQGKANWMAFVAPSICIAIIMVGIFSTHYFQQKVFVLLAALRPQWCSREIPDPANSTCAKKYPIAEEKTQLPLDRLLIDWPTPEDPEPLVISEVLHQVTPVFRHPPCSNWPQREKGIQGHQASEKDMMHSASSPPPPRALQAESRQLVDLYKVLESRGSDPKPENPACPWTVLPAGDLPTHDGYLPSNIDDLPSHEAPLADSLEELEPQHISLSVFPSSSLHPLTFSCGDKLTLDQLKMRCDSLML
Briefly: cell-based or functional assay.

Experiment [2] has as its target T2, human IL12Rβ2 extracellular domain Fc-fusion (human, UniProt Q99665 24-622).
T2 construct: extracellular domain; bought; also called IL12Rβ2-Fc; hIL-12Rβ2-Fc
T2 sequence (looked up): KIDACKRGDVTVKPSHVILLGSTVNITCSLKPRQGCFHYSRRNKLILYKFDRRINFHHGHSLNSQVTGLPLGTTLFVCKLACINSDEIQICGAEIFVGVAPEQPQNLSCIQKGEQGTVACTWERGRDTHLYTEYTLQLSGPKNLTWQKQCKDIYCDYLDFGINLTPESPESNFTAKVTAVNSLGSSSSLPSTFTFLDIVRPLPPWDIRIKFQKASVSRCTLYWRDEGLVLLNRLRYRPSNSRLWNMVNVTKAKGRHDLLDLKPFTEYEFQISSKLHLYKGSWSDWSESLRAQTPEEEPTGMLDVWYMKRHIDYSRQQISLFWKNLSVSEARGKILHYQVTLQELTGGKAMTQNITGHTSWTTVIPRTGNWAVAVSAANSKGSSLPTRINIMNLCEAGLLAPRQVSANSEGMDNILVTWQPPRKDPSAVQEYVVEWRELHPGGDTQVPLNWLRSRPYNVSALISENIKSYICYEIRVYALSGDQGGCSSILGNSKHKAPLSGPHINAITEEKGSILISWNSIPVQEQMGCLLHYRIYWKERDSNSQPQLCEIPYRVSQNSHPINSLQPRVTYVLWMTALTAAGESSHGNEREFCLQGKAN
The experiment can be described thus: competition ELISA, ratio to monovalent IL12Rb2#1. (In general: In an ELISA, binding on a coated surface is turned into a signal by an enzyme label.)

Experiment [3] has as its target T3, human IL12Rβ1, cell-expressed (human, UniProt P42701 24-662).
T3 construct: whole, on cells; in the context of the heterodimeric receptor; also called IL12Rb1
Briefly: flow cytometry on isolated CD8+ T cells of donor D863, anti-Flag detection. In general terms: Flow cytometry measures light scatter and fluorescence of single cells or particles in a stream.

Experiment [4] addresses T2, human IL12Rβ2 extracellular domain …. Briefly: competition ELISA, coated IL-12 + IL12Rβ2-Fc.
Experiment [5] has as its target T4, human CD4, cell-expressed (human, UniProt P01730 26-458).
T4 construct: whole, on cells
The experiment can be described thus: flow cytometry on MOLM-13 cells (CD4, no IL12R or IL23R), upper left panel.

In experiment [6] the target is T4, human CD4, cell-expressed. Briefly: flow cytometry on activated T cells of donor D838 (very high CD4, moderate IL12R), upper left panel.
Experiment [7] deals with T2, human IL12Rβ2 extracellular domain …. The experiment can be described thus: competition ELISA, ratio to monovalent IL12Rb2#2.
Experiment [8] addresses T5, human IL-23R extracellular domain Fc-fusion (human, UniProt Q5VWK5 24-355).
T5 construct: extracellular domain; bought; also called IL-23R-Fc
T5 sequence (looked up): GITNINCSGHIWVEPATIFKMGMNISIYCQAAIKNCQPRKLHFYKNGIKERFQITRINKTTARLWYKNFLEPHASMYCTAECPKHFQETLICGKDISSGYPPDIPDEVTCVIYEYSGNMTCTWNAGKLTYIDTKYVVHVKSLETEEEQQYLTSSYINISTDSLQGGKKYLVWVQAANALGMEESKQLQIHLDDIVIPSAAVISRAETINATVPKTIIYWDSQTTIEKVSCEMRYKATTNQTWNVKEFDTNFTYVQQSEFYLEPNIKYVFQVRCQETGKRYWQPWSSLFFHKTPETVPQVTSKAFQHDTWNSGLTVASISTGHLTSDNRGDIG
Briefly: SPR Biacore T100, captured IL-23R-Fc. Background: In SPR one partner is held on a chip, and binding of the other changes the refractive index at the surface.

Experiment [9] deals with T4, human CD4, cell-expressed. Briefly: flow cytometry on MOLM-13 cells (CD4, no IL12R or IL23R), upper right panel.
The target in experiment [10] is T5, human IL-23R extracellular domain …. Briefly: competition ELISA, coated IL-23 + 5 nM IL-23R-Fc.
Experiment [11] has the same target. The experiment can be described thus: competition ELISA, coated IL-23 + IL-23R-Fc.
Experiment [12] addresses T6, human IL12Rβ1 extracellular domain Fc-fusion (human, UniProt P42701 24-545).
T6 construct: extracellular domain; bought; also called IL12Rβ1-Fc; hIL-12Rβ1-Fc; not shown: Fc part, captured by anti-hIgG
The experiment can be described thus: competition ELISA, coated IL-12 + 2 nM IL12Rβ1-Fc.

The target in experiment [13] is T4, human CD4, cell-expressed. Briefly: flow cytometry on MOLM-13 cells (CD4, no IL12R or IL23R), lower left panel.
Experiment [14] deals with T3, human IL12Rβ1, cell-expressed. Briefly: cell-based or functional assay.
The target in experiment [15] is T6, human IL12Rβ1 extracellular domain …. Briefly: SPR Biacore T100, captured IL12Rβ1-Fc.
Experiment [16] has the same target. The experiment can be described thus: competition ELISA, coated IL-23 + 2 nM IL12Rβ1-Fc.
Experiment [17] addresses T3, human IL12Rβ1, cell-expressed. The experiment can be described thus: cell-based or functional assay. This is another data set of the same source.
Experiment [18] has as its target T6, human IL12Rβ1 extracellular domain …. The experiment can be described thus: competition ELISA, coated IL-12 + IL12Rβ1-Fc.
For experiment [19] the target is unchanged. Briefly: competition ELISA, coated IL-23 + IL12Rβ1-Fc.

This is an account of results in US20160251440A1 (Ablynx, published 2016).

B1: IL12Rb2#1-35GS-CD4#8 (bispecific antibody)
chain: EVQLVESGGRLVQAGDSLRLSCAASGRTFISYRMGWFRQAPGKEREFVAALRWSSSNIDYTYYADSVKGRFSISGDYAKNTVYLQMNSLKAEDTAVYYCAASTRWGVMESDTEYTSWGQGTLVTVSSGGGGSGGGGSGGGGSGGGGSGGGGSGGGGSGGGGSEVQLVESGGGSVQPGGSLTLSCGTSGRTFNVMGWFRQAPGKEREFVAAVRWSSTGIYYTQYADSVKSRFTISRDNAKNTVYLEMNSLKPEDTAVYYCAADTYNSNPARWDGYDFRGQGTLVTVSS
notes: defined by its make-up (Nb1-Nb2)
For B1, in experiment [1], the “IC50, IFNγ release, PBMC D840” value stood at 1.1 nM; the “IC50, IFNγ release, T cells D839” value turned out to be 0.11 nM; the “fold ctrl, IFNγ release, PBMC D840” value is 11 fold; the “fold ctrl, IFNγ release, T cells D839” value came out at 400 fold. Besides, in experiment [2], the fold ctrl was found to be 0.9 fold. Besides, the binding result in experiment [3] is recorded as “no binding (tested: 250 nM)”. Further, the IC50 (commonly the midpoint of a concentration-inhibition curve) in experiment [4] came to 4.8 nM. Further, in experiment [5], the EC50 (read off the curve) (as a rule, the concentration that produces a half-maximal response) was roughly 1 nM. Further, the “EC50 (read off the curve)” value in [6] was roughly 1 nM.

B2: IL12Rb2#2-35GS-CD4#8 (bispecific antibody)
chain: EVQLVESGGRLVQAGDSLRLSCAASGRTFTSYRMGWFRQAPGKEREFVSALRWSSGNIDYTYYADSVKGRFSISGDYAKNTVYLQMNSLKAEDTAVYYCAASTRWGVMESDTEYTSWGQGTLVTVSSGGGGSGGGGSGGGGSGGGGSGGGGSGGGGSGGGGSEVQLVESGGGSVQPGGSLTLSCGTSGRTFNVMGWFRQAPGKEREFVAAVRWSSTGIYYTQYADSVKSRFTISRDNAKNTVYLEMNSLKPEDTAVYYCAADTYNSNPARWDGYDFRGQGTLVTVSS
notes: defined by its make-up
For B2, in [1], the “IC50, IFNγ release, PBMC D840” value amounted to 1.6 nM; the “IC50, IFNγ release, T cells D839” value amounted to 0.031 nM; the “fold ctrl, IFNγ release, PBMC D840” value worked out at 30 fold; the “fold ctrl, IFNγ release, T cells D839” value turned out to be 1130 fold. For the same molecule, the fold ctrl in experiment [7] turned out to be 1.4 fold. For the same molecule, the IC50 in experiment [4] is 11 nM. In addition, in experiment [5], the “EC50 (read off the curve)” value is roughly 1 nM. Besides, in experiment [6], the “EC50 (read off the curve)” value was roughly 1 nM.

B3: IL23R#20: 150H07 (VHH)
VHH: EVQLVESGGGLVQAGGSLRLSCAASGRTFSSYAMGWFRQAPGKDREFVAAISWIGESTYYADSVKGRFTISRDNAKNTVYLRMNSLKPEDTAVYYCAADLYYTAYVAAADEYDYWGQGTLVTVSS
notes: bispecifics print NAKNTVY where this entry prints NAKNIVY; also called LG150H07
As for B3, in [8], the Kd – broadly, the free concentration of one partner at which half of the binding sites on the other are occupied at equilibrium, for simple one-to-one binding – was 78 nM; the koff (as a rule, the rate constant with which the complex falls apart) is 0.23 s⁻¹; the kon – broadly, the second-order rate constant of association – came to 3e+06 M⁻¹ s⁻¹. Moreover, in [9], the binding result is given as “no binding (tested: 1E-6 M)”. Further, in experiment [10], the IC50 was 16 nM. Moreover, the IC50 in experiment [11] is 16 nM.

B4: CD4#8-35GS-IL12Rb2#1 (bispecific antibody)
chain: EVQLVESGGGSVQPGGSLTLSCGTSGRTFNVMGWFRQAPGKEREFVAAVRWSSTGIYYTQYADSVKSRFTISRDNAKNTVYLEMNSLKPEDTAVYYCAADTYNSNPARWDGYDFRGQGTLVTVSSGGGGSGGGGSGGGGSGGGGSGGGGSGGGGSGGGGSEVQLVESGGRLVQAGDSLRLSCAASGRTFISYRMGWFRQAPGKEREFVAALRWSSSNIDYTYYADSVKGRFSISGDYAKNTVYLQMNSLKAEDTAVYYCAASTRWGVMESDTEYTSWGQGTLVTVSS
notes: defined by its make-up
Consider B4, for which, in experiment [1], the “IC50, IFNγ release, PBMC D840” value came to 1.9 nM; the “IC50, IFNγ release, T cells D839” value turned out to be 0.78 nM; the “fold ctrl, IFNγ release, PBMC D840” value was 8 fold; the “fold ctrl, IFNγ release, T cells D839” value came to 74 fold. The fold ctrl in experiment [2] was found to be 0.4 fold. Further, the IC50 in [4] was found to be 10 nM. The “EC50 (read off the curve)” value in [5] is roughly 1 nM. The “EC50 (read off the curve)” value in experiment [6] is roughly 1 nM.

B5: IL12Rb1#31: 148F09 (VHH)
VHH: EVQLVESGGGLVQTGGSLRLSCAASGRTPSIIAMGWFRQTPGKEREFVGEIILSKGFTYYADSVKGRFTISRANAKNTITMYLQMNSLKSEDTAVYYCAARQNWSGNPTRTNEYEYWGQGTLVTVSS
notes: also called IL12Rβ1#31; LG148F09
As to B5, the IC50 came out at 22 nM in experiment [12], 10 nM in experiment [16], 22 nM in experiment [18] and 10 nM in experiment [19]. Besides, the binding result in experiment [13] was “no binding (tested: 1E-6 M)”. For the same molecule, in experiment [14], the “IC50, IFNγ release, PBMC D840” value is 93.5 nM. Also, in experiment [15], the Kd is 23 nM. Also, in experiment [15], the koff is 0.017 s⁻¹. In [15], this molecule had a kon of 720000 M⁻¹ s⁻¹. Moreover, the “IC50, IL-17 release, PBMC D840” value in [17] was 210 nM.
